Assay results reported in patent US20090018074A1.

Tests used:
[1] = target: full length Bt-R1a cadherin expressed in Drosophila S2 cells (Manduca sexta); assay: 125I-Cry1Ab saturation binding on suspensions of S2 cells expressing full-length Bt-R1a; dissociation constant (Kcom)
[2] = target: Cad7-12 truncated Bt-R1a cadherin expressed in S2 cells (Manduca sexta); assay: 125I-Cry1Ab saturation binding on suspensions of S2 cells expressing the fragment
[3] = target: Cad11-12 truncated Bt-R1a cadherin expressed in S2 cells (Manduca sexta); assay: as above
[4] = target: Cad12 truncated Bt-R1a cadherin expressed in S2 cells (Manduca sexta); assay: as above
[5] = target: Cad7-12 truncated Bt-R1a cadherin expressed in S2 cells (Manduca sexta); assay: 125I-Cry1Ab saturation binding on suspensions of S2 cells expressing the fragment; dissociation constant (Kcom)
[6] = target: Cad11-12 truncated Bt-R1a cadherin expressed in S2 cells (Manduca sexta); assay: 125I-Cry1Ab saturation binding on S2 cell suspensions; reference Cad12
[7] = target: full length Bt-R1a cadherin expressed in Drosophila S2 cells (Manduca sexta); assay: 125I-Cry1Ab saturation binding on suspensions of S2 cells expressing full-length Bt-R1a

## Cry1Ab toxin (ligand)
[1]
  Kd: 3.55 nM
[2]
  Bmax (concentration of receptors) (fmoles/mg protein): 506
[3]
  Bmax (concentration of receptors) (fmoles/mg protein): 3320
[4]
  Bmax (concentration of receptors) (fmoles/mg protein): 1410
[5]
  Kd: 2.05 nM
[6]
  fold concentration of binding sites against Cad12: 3 fold
[7]
  Bmax (concentration of receptors) (fmoles/mg protein): 625
